Laboratory results published in JP2021054739A, “ビオチン改変二量体とフタロシアニン染料とのコンジュゲート” (dated 2021).

B1: CEA-V2122: anti-CEACAM5 scFv joined by amino acid linker GGGGSGGGG to streptavidin variant V2122 (SEQ ID NO: 3) (protein)
chain: QVKLEQSGAEVVKPGASVKLSCKASGFNIKDSYMHWLRQGPGQRLEWIGWIDPENGDTEYAPKFQGKATFTTDTSANTAYLGLSSLRPEDTAVYYCNEGTPTGPYYFDYWGQGTLVTVSSGGGGSGGGGSGGGGSENVLTQSPSSMSVSVGDRVNIACSASSSVPYMHWLQQKPGKSPKLLIYLTSNLASGVPSRFSGSGSGTDYSLTISSVQPEDAATYYCQQRSSYPLTFGGGTKLEIKGGGGSGGGGAEAGITGTWSDQLGDTFIVTAGADGALTGTYENAVGGAESRYVLTGRYDSAPATDGSGTALGWTVAWKNNSKNAHSATTWSGQYVGGADAKINTQWLLTSGTTNANAWKSTLVGHDTFTKVKPSAASHHHHHH
B2: CEA-V2122-FITC: CEA-V2122 labelled with FITC (Fluorescein Labeling Kit - NH2) (conjugate)
chain: B1 chain

Experiments:
[1] = molecular target: T1, CEACAM5 (Recombinant Human CEACAM-5/CD66e Protein) (Homo sapiens, UniProt P06731); test: SPR (Biacore T200), CEA-V2122 on immobilised CEACAM5; type: binding
T1 construct: purchased R&D SYSTEMS
T1 sequence (P06731 35-702): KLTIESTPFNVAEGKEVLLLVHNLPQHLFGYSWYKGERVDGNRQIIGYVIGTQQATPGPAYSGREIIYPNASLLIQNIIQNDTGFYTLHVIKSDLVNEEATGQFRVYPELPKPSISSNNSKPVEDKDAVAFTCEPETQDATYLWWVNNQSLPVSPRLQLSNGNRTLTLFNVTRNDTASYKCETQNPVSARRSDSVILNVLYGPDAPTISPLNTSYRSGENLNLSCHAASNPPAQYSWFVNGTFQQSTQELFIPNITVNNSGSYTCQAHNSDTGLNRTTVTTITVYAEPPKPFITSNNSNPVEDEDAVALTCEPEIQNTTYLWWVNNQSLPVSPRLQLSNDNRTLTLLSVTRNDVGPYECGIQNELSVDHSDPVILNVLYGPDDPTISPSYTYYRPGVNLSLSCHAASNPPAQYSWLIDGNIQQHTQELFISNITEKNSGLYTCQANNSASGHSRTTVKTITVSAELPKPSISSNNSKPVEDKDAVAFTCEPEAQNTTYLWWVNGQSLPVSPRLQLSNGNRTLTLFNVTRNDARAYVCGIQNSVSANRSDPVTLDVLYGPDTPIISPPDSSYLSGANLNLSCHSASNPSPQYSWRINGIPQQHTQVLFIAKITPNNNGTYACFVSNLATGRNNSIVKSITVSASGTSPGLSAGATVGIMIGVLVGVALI

[2] = tested on: CEACAM5 on CEACAM5-positive MKN-45 cells and CEACAM5-negative DLD1 cells [CEACAM5陽性のヒト胃がん由来MKN-45細胞とCEACAM5陰性のヒト結腸がん由来DLD1細胞]; test: Cell staining with FITC-labelled CEA-V2122 (In Cell Analyzer 6000); type: cell-based, human
[3] = SPR, Single-Cycle Kinetics, Bivalent Analyze fit, analyte CEA-V2122 1E-08 M to 6.25E-10 M

Molecule | KD (kd1/ka1) ([1]; SPR, Single-Cycle Kinetics, Bivalent Analyze fit, KD = kd1/ka1) | ka1 [1, 3] | kd1 [1, 3] | binding to CEACAM5 (in words) ([1]; from sensorgram and KD value, Fig. 3) | recognition of CEACAM5 on the cell membrane surface (in words) ([2]; 20 nM CEA-V2122-FITC, 4℃, 30 min, Fig. 5) | behaviour of CEACAM5 after CEA-V2122-FITC binding (in words) ([2]; MKN45 cells, time series, Fig. 6)
B1 | 1.078E-12 | 3.208E+5 | 3.461E-7 | 強く結合する |  | 
B2 |  |  |  |  | 細胞膜表面のCEACAM5を特異的に認識する | 細胞膜表面に滞留する
